Reference: PMC5528828

Biological target: MAK33 VL S20N (murine)
Experiment: negative-stain transmission electron microscopy; non-fibrillar oligomers; 50 uM monomer, 25 mM acetic acid, 25 mM phosphoric acid, 50 mM NaCl, pH 2, room temperature, quiescent; number of monomers estimated from the mean particle diameter

Substance: MAK33 VL S20N (domain or fragment)
- stoichiometry N (monomers per oligomer): 30
